T1: recombinant cynomolgus MerTK extracellular domain (cynomolgus, UniProt Q12866 21-505 (human entry))
T1 construct: also called cyno MerTK ECD; not shown: polyHis or TEVS/Thrombin/murine IgG2a-Fc tag
T1 chain: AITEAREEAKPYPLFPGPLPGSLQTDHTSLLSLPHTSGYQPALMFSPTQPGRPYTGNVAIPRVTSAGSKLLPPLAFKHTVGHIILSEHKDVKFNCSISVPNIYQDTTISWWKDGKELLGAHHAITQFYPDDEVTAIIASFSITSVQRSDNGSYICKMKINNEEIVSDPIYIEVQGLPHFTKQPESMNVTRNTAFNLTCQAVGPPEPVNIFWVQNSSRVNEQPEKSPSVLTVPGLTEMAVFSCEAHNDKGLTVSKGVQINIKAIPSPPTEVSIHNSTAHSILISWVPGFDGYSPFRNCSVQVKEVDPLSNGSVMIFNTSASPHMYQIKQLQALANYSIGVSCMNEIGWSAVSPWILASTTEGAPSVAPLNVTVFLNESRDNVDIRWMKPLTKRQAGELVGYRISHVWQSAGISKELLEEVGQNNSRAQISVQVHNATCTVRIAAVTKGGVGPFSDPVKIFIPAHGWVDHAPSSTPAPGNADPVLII

T2: recombinant murine MerTK extracellular domain (mouse, UniProt Q60805 19-497)
T2 construct: also called Mouse MerTK; murine MerTK ECD; not shown: polyHis or TEVS/Thrombin/murine IgG2a-Fc tag
T2 sequence: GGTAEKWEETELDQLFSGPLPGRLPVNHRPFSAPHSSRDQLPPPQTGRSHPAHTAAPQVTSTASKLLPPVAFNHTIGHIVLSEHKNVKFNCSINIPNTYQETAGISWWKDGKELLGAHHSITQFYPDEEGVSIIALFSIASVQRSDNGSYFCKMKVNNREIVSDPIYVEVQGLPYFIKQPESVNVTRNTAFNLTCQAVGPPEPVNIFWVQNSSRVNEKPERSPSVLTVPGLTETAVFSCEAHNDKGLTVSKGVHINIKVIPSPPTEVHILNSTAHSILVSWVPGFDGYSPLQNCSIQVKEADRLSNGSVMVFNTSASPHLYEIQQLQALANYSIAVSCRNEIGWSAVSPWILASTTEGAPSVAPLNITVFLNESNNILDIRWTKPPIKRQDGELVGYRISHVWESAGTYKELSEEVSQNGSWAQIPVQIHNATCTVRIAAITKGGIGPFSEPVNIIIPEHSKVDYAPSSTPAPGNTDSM

T3: MerTK N-terminal ECD Half-and-half chimera (human)
T3 construct: tested as culture supernatant; also called MerTK N-term half-and-half chimera; MerTK N-terminal ECD (NT-Ig1-Ig2) + Axl C-terminal ECD (FN1-FN2-JM)
T3 chain: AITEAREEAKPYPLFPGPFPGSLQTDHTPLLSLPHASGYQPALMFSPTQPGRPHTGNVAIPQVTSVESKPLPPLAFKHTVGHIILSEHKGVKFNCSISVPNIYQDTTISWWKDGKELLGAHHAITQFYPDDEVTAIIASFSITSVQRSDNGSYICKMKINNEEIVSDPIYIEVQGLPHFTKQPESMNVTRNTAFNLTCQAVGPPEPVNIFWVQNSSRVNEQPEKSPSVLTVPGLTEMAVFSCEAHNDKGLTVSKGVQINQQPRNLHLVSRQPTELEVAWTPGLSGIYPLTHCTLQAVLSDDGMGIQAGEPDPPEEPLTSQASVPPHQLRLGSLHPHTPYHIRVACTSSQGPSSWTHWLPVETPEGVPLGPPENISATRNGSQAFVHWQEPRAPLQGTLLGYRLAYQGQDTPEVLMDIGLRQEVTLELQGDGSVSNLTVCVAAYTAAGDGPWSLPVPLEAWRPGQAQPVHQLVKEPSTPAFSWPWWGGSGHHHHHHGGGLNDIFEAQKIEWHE


How the values were obtained:
[1] = molecular target: T1, recombinant cynomolgus MerTK …; assay: SPR Carterra LSA
Method: (§1) Binding kinetics of anti-MerTK IgG1 antibodies of the present disclosure to human, cyno, and murine MerTK were evaluated using a Carterra LSA instrument (Carterra, Salt Lake City, UT). […] A HC200M sensor chip (Carterra) was activated using the single channel flow cell with a 7-minute injection of a 1:1:1 mixture of 100 mM MES pH 5.5, 100 mM sulfo-NHS, 400 mM EDC (all reconstituted in MES pH 5.5; 100 μl of each mixed in vial immediately before running assay). After switching to the multi-channel array flow cell, the antibodies were injected over the activated chip in three 96-spot arrays for 10 minutes each. The remaining unconjugated active groups on the chip were then blocked by injecting 1M Ethanolamine pH 8.5 (Carterra) for 7 minutes using the single channel flow cell. The resulting sensor chip contained three spots for each antibody, at three different densities. Two independent experiments were performed as follows, resulting in an N of between one and six determinations for each antibody. Spots that yielded less than 25 RU of analyte binding were excluded from further analysis.
(§2) After priming with running buffer (HBS-TE, Carterra) with 0.5 mg/ml BSA (Sigma), the immobilized anti-MerTK antibodies were tested for their ability to bind to several forms of recombinant MerTK extracellular domain, including human, cynomolgus, and mouse orthologs as described above. Estimates of affinity were generated by injecting each analyte over the entire antibody array using the single channel flow cell. MerTK analytes were diluted with running buffer, in a series of six, three-fold serial dilutions starting from 1 μM for human and cynomolgus MerTK, and 600 nM for mouse MerTK. Analytes were injected for 5 minutes, and dissociation was followed for 10 minutes. After each analyte injection, antibodies were regenerated with either Protein A/G Elution Buffer (Thermo) with 1M NaCl (Teknova), or with 10 mM Glycine pH 2.5. Three buffer blanks were run between each series (one species per series). Data were processed and analyzed using NextGenKIT high-throughput kinetics analysis software (Carterra).

[2] = molecular target: T2, recombinant murine MerTK extracellular …; assay: SPR Carterra LSA
Method: as §1, §2

[3] = molecular target: T1, recombinant cynomolgus MerTK …; assay: SPR Carterra LSA, Ab immobilised
Method in brief: (§3)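 Surface plasmon resonance on a Carterra LSA measured affinity of immobilized antibodies for human, cynomolgus or mouse MerTK ectodomain diluted in HBS-TE with 0.5 mg/ml BSA. Analytes flowed over the full array, surfaces were regenerated with Protein A/G Elution Buffer plus 1M NaCl or 10 mM Glycine pH 2.5, and spots binding under 25 RU were discarded before kinetic fitting.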

[4] = molecular target: T2, recombinant murine MerTK extracellular …; assay: SPR Carterra LSA, Ab immobilised
Method in brief: as §3

[5] = molecular target: T3, MerTK N-terminal ECD Half-and-half …; assay: SPR, construct supernatant over immobilised Ab
Method: Binding of anti-MerTK antibodies of the present disclosure to these domain-swapped chimera or deletion mutants was tested by Surface Plasmon Resonance (SPR) using Carterra LSA. Purified anti-MerTK antibodies were immobilized in duplicate on a HC30M chip (Carterra) by amine coupling, following the manufacturer's instructions (described previously).
Supernatants containing the constructs were diluted 1:1 with running buffer containing 0.5 mg/mL BSA (HBS-TE, Carterra; BSA, Sigma) and injected over the immobilized antibodies. The surface was regenerated with 10 mM Glycine pH2.0 after each construct injection. Sensorgrams were analyzed using Carterra Epitope software to identify patterns of construct binding. Loss of binding to MerTK constructs with domains deleted or swapped in from Axl and/or gain of binding to Axl constructs with MerTK domains swapped in were evaluated. Data from these studies were used to construct a domain binding map for anti-MerTK antibodies and their binding to various domains of human MerTK.

| Binder | Ratio of KD for Cynomolgus vs Human MerTK [1] | Ratio of KD for Mouse vs Human MerTK [2] | Kd [3] | Kd [4] | binding result [5] | binding result [4] |
| --- | --- | --- | --- | --- | --- | --- |
| MTK-213 (antibody, human IgG1, V domains shown) VH: QVQLQQPGAELVKPGASVKMSCKASGYTFTSYWITWVKQRPGQGHEWIGEIYPGIGSTNYNEKFKSKATLTVDTSSRTAYMQLSSLTSEDSAVYFCARGAYTKYYFDYWGQGTTLTVSS VL: DIVMTQSHKFMSTSVGDRVSITCKASQDVGDAVAWYQQKPGQTPKLLIYWASTRHTGVPDRFTGSGSGTDFTLTISNVQSEDLADYFCQQYSSYLMYTFGGGTKLEIK | 0.9 ratio | 0.08 ratio | 60 nM | 4.8 nM |  |  |
| MTK-229 (antibody, human IgG1, V domains shown) VH: QVQLQQSGPELVKPGASVKISCKASGYEFSRSWMNWVKQRPGKGLEWIGRIYPGDGDTNYKGKLKGQATLTADKSSSTAYMQLSSLTFEDSAVYFCARGGGYYYDSRYEGFVYWGQGTVVTVSA VL: QIVLTQSPAIMSASPGEEVTMTCSASSSVSYMHWYQQKSGTSPKRWIYDTSKLASGVSGRFSGSGSGTSYSLTISSMEAEDAATYYCQQWSSNPPITFGAGTKLELK | 2.9 ratio |  | 52 nM |  | no binding |  |
| MTK-219 (antibody, human IgG1, V domains shown) VH: QVQLQQSGADLMKPGASVKLSCKATGNTFTGYWIEWVKQRPGHGLEWIGEILTGSGSTNYNERFKGKATFTADTSSNTAYMQLSSLTTEDSAIYYCAGSYFTNSWFPYWGQGSLVTVSA VL: DIVLTQSPASLAVSLGQRATISCRASESVDSYGNSFMHWYQQKPGQPPKLLIYRAYTLESGIPARFSGSGSRTDFTLTINPVEADDVATYYCQQSNEDPRTFGGGTKLEIK | 1.9 ratio |  | 830 nM |  | no binding |  |
| MTK-222 (antibody, human IgG1, V domains shown) VH: QVQLQQSGADLMKPGASVKLSCKATGYTFTGYWIEWVKQRPGHGLEWIGEILTGSGSSNYNEKFKGKATFTADSSSNTAFMQLSSLTTEDSAIYYCAGSYYSNSWFPYWGQGSLVTVSA VL: DIVLTQSPVSLAVSLGQRATISCRASESVDSYGSSFMHWYQQKPGQPPKLLIYRASSLESGIPARFSGSGSRTDFTLTINPVETDDVATYYCQQSNEDPRTFGGGTKLEIK | 1 ratio |  | 130 nM |  | no binding |  |
| MTK-210 (antibody, human IgG1, V domains shown) VH: QVQLQQSGPELVKPGASVKISCKASDYEFSRSWMNWVKQRPGKGLEWIGRIYPGDGDTNYNGKFKGKATLTADKSSNTAYMQLNSLTSEDSAVYFCARKGGYYYSISNYFDYWGQGTTLTVSS VL: QIVLTQSPAIMSASPGVKVTMTCSASSSVSYMHWYQQKPGSSPRLLIYDTSNLASGVPVRFSGSGSGTSYSLTISRMEAEDAATYYCQQWSSYPPYTFGGGTKLEIK | 1.2 ratio |  | 37 nM |  | no binding | no binding (tested: analyte up to 600 nM) |
| MTK-228 (antibody, human IgG1, V domains shown) VH: QDQLQQSGPELVKPGASVKISCKASGYSFTSYYIHWVKQRPGQGLEWVGWIFPGNGNTKYNERFKGKATLTADTSSSTAYMQLSSLTSEDSAVYYCARLGLIYALDYWGQGTSVTVSS VL: DAVMTQTPLSLPVSLGDQASISCRSSQSLENSNGNTYLHWYLQKPGQSPQLLIYRVSNRFSGVLDRFSGSGSGTDFTLKISRVEAEDLGVYFCLQVTHVPFTFGSGTKLEIK | 1.1 ratio | 0.04 ratio | 46 nM | 1.7 nM |  |  |
| MTK-226 (antibody, human IgG1, V domains shown) VH: QVQLQQSGPELVKPGASVKISCKASGYSFTSYYIHWVKQRPGQGLEWIGWIFPGNGNTKYNENFRGKATLTADTSSSTAYMQLSSLTSEDSAVYYCARLGLIYALDYWGQGTSVTVSS VL: DAVMTQTPLSLPVSLGDQASISCRSSQSLESSNGNTYLHWYLQKPGQSPQLLIYRVSNRFSGVLDRFSGSGSGTDFTLQISRVEAEDLGVYFCLQVTHVPFTFGSGTKLEIK | 1.2 ratio | 0.05 ratio | 47 nM | 1.8 nM |  |  |
| MTK-218 (antibody, human IgG1, V domains shown) VH: QVQLQQSGPELVKPGTSVKISCKASGYSFTSYYIHWVKQRPGQGLDWIGWIFPGNRNTQYNEKFKGKATLTADTSSSTAYMQLSSLTSEDSAVYYCARLGLIYALDYWGQGTSVTVSS VL: DAVMTQTPLSLPVSLGDQASISCRSSQSLENSNGHTYLHWYLQKPGQSPQLLIYRVSNRFSGVQDRFSGSGSGTDFTLKISRVEAEDLGVYFCLQVTHVPFTFGSGTKLEIK | 1.3 ratio | 0.1 ratio | 85 nM | 6.2 nM |  |  |
| MTK-206 (antibody, human IgG1, V domains shown) VH: QVQLQQSGAELARPGASVKMSCKASGYTFTSYTMHWVKQRPGQGLEWIGYINPSSGYIKNSQKFKDKATLTADKSSSTAYMQLSSLTSEDSAVYYCARTVYGYYGSSPDYWGQGTTLTVSS VL: DIQMTQSPSSLSASLGERVSLTCRASQDIGSNLNWLQQEPDGTIKRLIYATSSLESGVPKRFSGSRSGSDYSLTISSLESEDFVDYYCLQYDSSPWTFGGGTKLEIK | 24.7 ratio |  | 3700 nM |  | no binding | no binding (tested: analyte up to 600 nM) |

Source: patent publication US20240294650A1 (Alector, published 2024)
